Reference: article PMC3547847, “A Newly Uncovered Group of Distantly Related Lysine Methyltransferases Preferentially Interact with Molecular Chaperones to Regulate Their Activity” (PLoS Genetics, 2013)

How the values were obtained:
Experiment in all cases: pull-down; 500 ng GST-tagged METTL21D with 100 ng His-tagged protein and Glutathione Sepharose 4B beads, 1 hour at 4°C, 50 mM NaCl, 50 mM HEPES-KOH pH 7.6, 0.1% NP-40, 0.5% charcoal-stripped FBS; bound His-tagged proteins detected by anti-6X His Western blot; AdoMet or AdoHcy present in Figure 6E; VCP and ASPSCR1 also added together (more binding)
Details in all cases: both partners purified
[1] = biological target: T1, VCP-His R155H (human, UniProt P55072 1-806, R155H)
T1 construct: VCP/p97, human, with the IBMPFD- and ALS-linked substitution R155H; also called VCP mutant R155H; source: E. coli One Shot BL21 Star (DE3), purified (Ni-NTA Agarose)

[2] = biological target: T2, C-terminal fragment of ASPSCR1 (residues 280–553) (human, UniProt Q9BZE9 280-553)
T2 construct: ASPSCR1/UBXD9, human, residues 280-553; also called C-terminal half of ASPSCR1; source: E. coli One Shot BL21 Star (DE3), purified (Ni-NTA Agarose)
T2 sequence (looked up): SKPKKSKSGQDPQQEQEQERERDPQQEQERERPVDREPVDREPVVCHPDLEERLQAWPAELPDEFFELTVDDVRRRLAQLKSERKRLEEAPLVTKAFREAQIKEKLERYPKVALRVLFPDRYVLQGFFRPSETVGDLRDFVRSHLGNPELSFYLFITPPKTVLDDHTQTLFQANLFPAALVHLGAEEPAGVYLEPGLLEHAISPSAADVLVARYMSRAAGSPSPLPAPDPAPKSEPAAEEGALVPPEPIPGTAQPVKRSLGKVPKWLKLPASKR

[3] = biological target: T3, ASPSCR1-His (human, UniProt Q9BZE9 1-553)
T3 construct: ASPSCR1/UBXD9, human; also called full-length ASPSCR1; His-tagged ASPSCR1; source: E. coli One Shot BL21 Star (DE3), purified (Ni-NTA Agarose)
T3 sequence (looked up): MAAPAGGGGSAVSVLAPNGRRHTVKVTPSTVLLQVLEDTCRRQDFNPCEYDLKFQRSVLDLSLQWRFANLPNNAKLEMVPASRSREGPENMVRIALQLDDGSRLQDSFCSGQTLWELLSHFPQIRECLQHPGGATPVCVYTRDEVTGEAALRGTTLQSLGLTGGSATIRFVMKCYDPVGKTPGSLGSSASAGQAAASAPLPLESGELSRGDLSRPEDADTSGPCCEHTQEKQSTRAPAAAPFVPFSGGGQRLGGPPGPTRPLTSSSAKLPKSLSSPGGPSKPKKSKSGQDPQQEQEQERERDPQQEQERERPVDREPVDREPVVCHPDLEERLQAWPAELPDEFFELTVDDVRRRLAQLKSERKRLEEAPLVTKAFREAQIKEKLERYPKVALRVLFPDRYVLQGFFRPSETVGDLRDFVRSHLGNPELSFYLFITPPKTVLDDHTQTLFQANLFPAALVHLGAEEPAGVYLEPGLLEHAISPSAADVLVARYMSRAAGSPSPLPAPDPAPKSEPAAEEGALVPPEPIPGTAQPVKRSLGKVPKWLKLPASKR

[4] = biological target: T4, VCP-His R191Q (human, UniProt P55072 1-806, R191Q)
T4 construct: VCP/p97, human, with the IBMPFD- and ALS-linked substitution R191Q; also called VCP mutant R191Q; source: E. coli One Shot BL21 Star (DE3), purified (Ni-NTA Agarose)

[5] = biological target: T5, VCP-His R159G (human, UniProt P55072 1-806, R159G)
T5 construct: VCP/p97, human, with the ALS-linked substitution R159G; also called VCP mutant R159G; source: E. coli One Shot BL21 Star (DE3), purified (Ni-NTA Agarose)

[6] = biological target: T6, VCP-His (human, UniProt P55072 1-806)
T6 construct: VCP/p97, human; also called His-tagged VCP; wild-type VCP-His; source: E. coli One Shot BL21 Star (DE3), purified (Ni-NTA Agarose)

Measured: binding result

T6 sequence (P55072 whole entry): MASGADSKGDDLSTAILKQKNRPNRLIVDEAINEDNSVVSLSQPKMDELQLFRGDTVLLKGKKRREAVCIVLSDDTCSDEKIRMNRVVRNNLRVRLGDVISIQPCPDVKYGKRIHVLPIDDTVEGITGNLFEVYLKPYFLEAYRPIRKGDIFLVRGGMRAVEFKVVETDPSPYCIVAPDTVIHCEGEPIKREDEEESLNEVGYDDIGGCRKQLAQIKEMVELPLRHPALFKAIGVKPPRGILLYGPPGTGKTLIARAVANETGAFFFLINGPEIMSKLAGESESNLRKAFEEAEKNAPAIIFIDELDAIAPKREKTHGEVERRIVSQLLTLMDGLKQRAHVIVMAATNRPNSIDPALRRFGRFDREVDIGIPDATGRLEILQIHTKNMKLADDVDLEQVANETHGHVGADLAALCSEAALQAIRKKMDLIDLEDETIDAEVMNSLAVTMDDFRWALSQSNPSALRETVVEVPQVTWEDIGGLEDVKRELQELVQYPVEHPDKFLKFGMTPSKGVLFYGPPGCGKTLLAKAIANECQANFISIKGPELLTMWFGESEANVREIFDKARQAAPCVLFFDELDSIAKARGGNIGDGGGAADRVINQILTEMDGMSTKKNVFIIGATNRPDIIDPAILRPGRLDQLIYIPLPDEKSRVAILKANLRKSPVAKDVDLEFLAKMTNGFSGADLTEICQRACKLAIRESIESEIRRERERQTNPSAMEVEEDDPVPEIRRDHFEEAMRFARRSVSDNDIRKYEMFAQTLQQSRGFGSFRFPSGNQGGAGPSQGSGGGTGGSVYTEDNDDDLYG
T1 sequence (P55072 whole entry R155H): as the sequence (P55072 whole entry) above, with R155H counted along it
T4 sequence (P55072 whole entry R191Q): as the sequence (P55072 whole entry) above, with R191Q counted along it
T5 sequence (P55072 whole entry R159G): as the sequence (P55072 whole entry) above, with R159G counted along it

B1: GST-METTL21D (enzyme, human, UniProt Q9H867 1-229, looked up)
chain: MADTLESSLEDPLRSFVRVLEKRDGTVLRLQQYSSGGVGCVVWDAAIVLSKYLETPEFSGDGAHALSRRSVLELGSGTGAVGLMAATLGADVVVTDLEELQDLLKMNINMNKHLVTGSVQAKVLKWGEEIEGFPSPPDFILMADCIYYEESLEPLLKTLKDISGFETCIICCYEQRTMGKNPEIEKKYFELLQLDFDFEKIPLEKHDEEYRSEDIHIIYIRKKKSKFPS
notes: METTL21D, human; also called GST-tagged METTL21D; wild type METTL21D; source: E. coli One Shot BL21 Star (DE3), purified (Glutathione Sepharose 4B)
binds: all assays above
